Test [1] addresses macaca fascicularis α2β1 integrin on platelets (macaca fascicularis). Description: FACS of macaca blood platelets, secondary antibody only, without primary antibody (negative control).
Test [2] has as its target human α2β1 integrin on human platelets (human) (UniProt P17301). In words: FACS of human blood platelets, secondary antibody only, without primary antibody (negative control).

The values that follow come from patent US20130156786A1.

Chain of human α2β1 integrin on human platelets (human) (P17301 30-1181 limits assumed, chain 1 of 2): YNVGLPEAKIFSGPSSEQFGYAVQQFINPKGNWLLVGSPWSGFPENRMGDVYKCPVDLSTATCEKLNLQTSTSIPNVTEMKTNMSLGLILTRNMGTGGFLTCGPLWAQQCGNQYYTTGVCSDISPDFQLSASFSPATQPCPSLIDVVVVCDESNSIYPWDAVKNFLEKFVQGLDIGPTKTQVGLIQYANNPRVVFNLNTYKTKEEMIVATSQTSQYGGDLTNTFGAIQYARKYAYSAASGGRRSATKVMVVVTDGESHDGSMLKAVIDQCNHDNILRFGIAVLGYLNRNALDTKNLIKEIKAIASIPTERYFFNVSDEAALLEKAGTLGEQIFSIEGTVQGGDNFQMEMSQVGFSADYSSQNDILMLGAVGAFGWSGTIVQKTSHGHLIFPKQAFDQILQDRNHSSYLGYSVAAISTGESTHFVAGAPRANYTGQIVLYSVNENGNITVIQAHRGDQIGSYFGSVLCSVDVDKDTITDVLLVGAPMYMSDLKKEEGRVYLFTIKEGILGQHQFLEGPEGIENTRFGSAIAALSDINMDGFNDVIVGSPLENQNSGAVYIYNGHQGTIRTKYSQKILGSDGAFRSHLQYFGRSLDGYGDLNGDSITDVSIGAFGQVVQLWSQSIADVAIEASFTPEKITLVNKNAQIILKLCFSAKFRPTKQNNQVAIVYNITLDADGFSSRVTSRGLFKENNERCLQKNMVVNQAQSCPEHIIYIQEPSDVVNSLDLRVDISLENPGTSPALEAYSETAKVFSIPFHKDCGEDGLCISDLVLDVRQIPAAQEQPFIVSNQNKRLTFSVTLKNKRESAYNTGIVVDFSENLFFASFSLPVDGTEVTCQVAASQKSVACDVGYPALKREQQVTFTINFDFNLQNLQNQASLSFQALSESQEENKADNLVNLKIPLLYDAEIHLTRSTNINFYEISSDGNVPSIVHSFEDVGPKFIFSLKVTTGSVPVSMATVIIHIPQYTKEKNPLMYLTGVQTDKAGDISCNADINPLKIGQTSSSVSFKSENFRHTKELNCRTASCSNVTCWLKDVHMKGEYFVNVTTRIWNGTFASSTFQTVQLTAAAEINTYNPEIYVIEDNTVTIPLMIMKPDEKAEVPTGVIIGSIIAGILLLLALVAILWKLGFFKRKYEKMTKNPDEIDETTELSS
Chain of human α2β1 integrin on human platelets (human) (chain, as listed by the source limits assumed, chain 2 of 2): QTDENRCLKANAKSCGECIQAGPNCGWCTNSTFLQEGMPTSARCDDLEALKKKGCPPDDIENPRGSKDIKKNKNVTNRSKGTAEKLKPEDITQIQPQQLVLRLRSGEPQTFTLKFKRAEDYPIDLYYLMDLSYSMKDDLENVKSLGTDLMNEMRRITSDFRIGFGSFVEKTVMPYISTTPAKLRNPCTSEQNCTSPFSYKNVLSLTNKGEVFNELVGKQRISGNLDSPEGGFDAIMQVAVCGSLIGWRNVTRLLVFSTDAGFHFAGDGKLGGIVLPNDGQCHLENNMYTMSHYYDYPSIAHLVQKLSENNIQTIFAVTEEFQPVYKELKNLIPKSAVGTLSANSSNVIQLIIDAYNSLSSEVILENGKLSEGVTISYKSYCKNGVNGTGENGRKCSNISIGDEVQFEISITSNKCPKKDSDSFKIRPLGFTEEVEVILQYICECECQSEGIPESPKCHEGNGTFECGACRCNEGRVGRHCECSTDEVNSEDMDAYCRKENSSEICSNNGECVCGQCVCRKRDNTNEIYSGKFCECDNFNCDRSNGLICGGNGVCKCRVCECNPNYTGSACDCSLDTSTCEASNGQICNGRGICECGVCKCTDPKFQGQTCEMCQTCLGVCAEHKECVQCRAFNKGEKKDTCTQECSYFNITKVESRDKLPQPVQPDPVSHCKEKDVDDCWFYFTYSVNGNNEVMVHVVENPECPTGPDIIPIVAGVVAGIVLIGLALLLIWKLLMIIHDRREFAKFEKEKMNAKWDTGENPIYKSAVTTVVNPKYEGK

Take anti mouse-IgG-PE (antibody): the values for the % positives in test [1] and in test [2] were 0.6% and 0.5%, respectively.
